Experimental data taken from US20190315842A1 (DUKE UNIVERSITY, published 2019).
Where no end group is shown, it is not given here. The star is where a group is joined. Biotin = O=C1N[C@H]2[C@H](CS[C@H]2CCCCC(=O)*)N1

T1: systemic lupus erythematosus autoantigen SSB (UniProt P05455 1-408, limits assumed)
T1 sequence (looked up): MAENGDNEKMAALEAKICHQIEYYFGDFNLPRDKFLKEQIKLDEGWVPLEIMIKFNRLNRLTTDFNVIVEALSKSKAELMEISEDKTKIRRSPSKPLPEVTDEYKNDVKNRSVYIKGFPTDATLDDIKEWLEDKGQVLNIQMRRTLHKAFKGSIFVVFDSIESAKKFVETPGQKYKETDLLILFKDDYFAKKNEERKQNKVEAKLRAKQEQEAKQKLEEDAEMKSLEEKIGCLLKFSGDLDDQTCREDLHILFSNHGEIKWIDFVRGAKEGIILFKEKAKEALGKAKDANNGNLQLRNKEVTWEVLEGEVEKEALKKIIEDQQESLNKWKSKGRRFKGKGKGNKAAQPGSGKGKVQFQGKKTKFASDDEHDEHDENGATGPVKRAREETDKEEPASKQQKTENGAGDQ

T2: centromere B (CentB) (UniProt P07199 2-599)
T2 sequence (looked up): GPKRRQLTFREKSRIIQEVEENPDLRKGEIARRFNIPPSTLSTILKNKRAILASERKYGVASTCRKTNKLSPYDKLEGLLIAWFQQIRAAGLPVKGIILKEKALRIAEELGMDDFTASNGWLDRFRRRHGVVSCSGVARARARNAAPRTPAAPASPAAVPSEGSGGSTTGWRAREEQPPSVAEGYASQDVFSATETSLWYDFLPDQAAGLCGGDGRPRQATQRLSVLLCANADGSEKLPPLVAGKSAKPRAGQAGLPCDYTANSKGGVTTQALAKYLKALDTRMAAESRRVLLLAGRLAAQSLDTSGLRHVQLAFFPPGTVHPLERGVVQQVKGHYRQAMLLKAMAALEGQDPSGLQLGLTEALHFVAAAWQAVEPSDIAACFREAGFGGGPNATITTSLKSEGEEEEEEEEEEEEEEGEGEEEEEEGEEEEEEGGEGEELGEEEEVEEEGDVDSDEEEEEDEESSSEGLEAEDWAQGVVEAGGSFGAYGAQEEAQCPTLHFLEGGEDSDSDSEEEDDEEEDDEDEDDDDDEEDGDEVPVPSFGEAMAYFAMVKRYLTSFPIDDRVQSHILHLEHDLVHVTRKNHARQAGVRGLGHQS

T3: GPPPPIDNGDITSFP(GGGK-biotin)
T3 construct: also called biotinylated 15-mer peptide; biotinylated 19-mer
T3 peptide: GPPPPIDNGDITSFPGGGK(Biotin)

T4: sclerosis autoantigen (Scl-70) (UniProt P11387 2-765, limits assumed)
T4 sequence (looked up): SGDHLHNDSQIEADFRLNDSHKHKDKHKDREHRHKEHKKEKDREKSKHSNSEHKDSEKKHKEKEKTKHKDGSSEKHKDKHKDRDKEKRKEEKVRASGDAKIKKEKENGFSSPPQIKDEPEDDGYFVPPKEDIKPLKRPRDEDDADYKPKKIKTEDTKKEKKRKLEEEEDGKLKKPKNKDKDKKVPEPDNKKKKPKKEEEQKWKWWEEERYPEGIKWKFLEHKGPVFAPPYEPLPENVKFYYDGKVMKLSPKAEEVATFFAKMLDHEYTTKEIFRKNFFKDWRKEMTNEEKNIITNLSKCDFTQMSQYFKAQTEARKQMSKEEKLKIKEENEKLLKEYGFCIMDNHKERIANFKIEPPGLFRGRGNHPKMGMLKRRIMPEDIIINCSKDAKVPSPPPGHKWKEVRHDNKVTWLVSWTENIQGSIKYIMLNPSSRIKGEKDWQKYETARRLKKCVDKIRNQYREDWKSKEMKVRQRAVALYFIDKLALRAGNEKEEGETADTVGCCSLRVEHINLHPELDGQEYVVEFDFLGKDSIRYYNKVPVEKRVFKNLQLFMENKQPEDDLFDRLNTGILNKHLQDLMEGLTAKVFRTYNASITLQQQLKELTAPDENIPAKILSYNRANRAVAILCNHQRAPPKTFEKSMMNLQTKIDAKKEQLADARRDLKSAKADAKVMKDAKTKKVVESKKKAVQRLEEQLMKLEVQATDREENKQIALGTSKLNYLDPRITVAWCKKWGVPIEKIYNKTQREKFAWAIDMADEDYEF

T5: 15-mer peptide GPPPPIDNGDITSFP (SEQ ID NO: 114) (human)
T5 construct: Immobilized for SPR; also called parent peptide
T5 peptide: GPPPPIDNGDITSFP


Assays:
[1] = biological target: T1, systemic lupus erythematosus …; assay: AtheNA Multi-Lyte ANA, Ab at 12.5 ug/ml;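 note: monoclonal antibodies screened for binding to a panel of nuclear autoantigens (SSA, SSB, Sm, RNP, Scl-70, Jo-1, dsDNA, CentB, histones), with anti-HIV and anti-RSV antibodies as controls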
Protocol: (§1) All 7 mAbs were tested against the AtheNA Multi-Lyte panel of autoantigens. The AtheNA Multi-Lyte ANA test for a panel of nuclear antigens: systemic lupus erythematosus autoantigens SSA and SSB, sphingomyelin (Sm), ribonucleoprotein (RNP), sclerosis autoantigen (Scl-70), histidine-tRNA ligase (Jo-1), double-stranded DNA (dsDNA), centromere B (CentB), and histones. 4e10 (Anti HIV, NIH AIDS Reagent Program) and SYNAGIS® (anti-RSV monoclonal antibody palivizumab; “Synagis”) were used a controls.

[2] = biological target: T2, centromere B (CentB); assay: AtheNA Multi-Lyte ANA, Ab at 12.5 ug/ml;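 note: monoclonal antibodies screened for binding to a panel of nuclear autoantigens (SSA, SSB, Sm, RNP, Scl-70, Jo-1, dsDNA, CentB, histones), with anti-HIV and anti-RSV antibodies as controls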
Protocol: as §1

[3] = biological target: T1, systemic lupus erythematosus …; assay: AtheNA Multi-Lyte ANA, Ab at 6.25 ug/ml;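 note: monoclonal antibodies screened for reactivity against a panel of nuclear autoantigens, with an anti-HIV and an anti-RSV monoclonal antibody serving as controls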
Protocol: as §1

[4] = biological target: T1, systemic lupus erythematosus …; assay: AtheNA Multi-Lyte ANA, Ab at 50 ug/ml;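 note: monoclonal antibodies probed against a nuclear autoantigen panel (SSA, SSB, Sm, RNP, Scl-70, Jo-1, dsDNA, CentB, histones), with anti-HIV 4E10 and palivizumab as control antibodies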
Protocol: as §1

[5] = biological target: T2, centromere B (CentB); assay: AtheNA Multi-Lyte ANA, Ab at 50 ug/ml;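 note: monoclonal antibodies probed against a nuclear autoantigen panel (SSA, SSB, Sm, RNP, Scl-70, Jo-1, dsDNA, CentB, histones), with anti-HIV 4E10 and palivizumab as control antibodies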
Protocol: as §1

[6] = biological target: T3, GPPPPIDNGDITSFP(GGGK-biotin); assay: ELISA: biotinylated peptide captured on immobilized Neutravidin, antibody at 0.5 µg/ml, anti-human IgG-HRP/ABTS, OD 405 nm
Protocol: After washing, recombinant human monoclonal antibodies were added to the wells at 0.5 μg/ml and incubated for 2 hr at room temperature. The wells were washed and incubated with goat anti-human IgG-gamma horseradish peroxidase conjugate at a 1:1000 dilution. After further washing, bound antibody was detected with 2,2′-azino-bis (3-ethylbenzthiazoline-6-sulfonic acid)(ABTS)/hydrogen peroxide and the absorbance measured at 405 nm.

[7] = biological target: T4, sclerosis autoantigen (Scl-70); assay: AtheNA Multi-Lyte ANA, Ab at 25 ug/ml
Protocol: as §1

[8] = biological target: systemic lupus erythematosus autoantigen SSA; assay: AtheNA Multi-Lyte ANA, Ab at 25 ug/ml
Protocol: as §1

[9] = biological target: T5, 15-mer peptide GPPPPIDNGDITSFP (SEQ ID …); assay: assay and antigen not given; Example 10, epitope mapping on the 15-mer peptide

| AtheNA signal [1] | AtheNA signal [2] | AtheNA signal [3] | AtheNA signal [4] | AtheNA signal [5] | binding result [6] | AtheNA signal [7] | AtheNA signal [8] | EC50 [9] [ng/mL] | Binder |
| --- | --- | --- | --- | --- | --- | --- | --- | --- | --- |
| 5 | 2 | 1 | 8 | 3 | – | – | – | – | Ab7962/293i (antibody, V domains shown, Recombinant human antibody with IgG1 heavy chain backbone and kappa light chain constant (IgM in the donor B cell); they begin at LVESGGG and MTQSL; also called clone 27; pH007962/pK005996) VH: LVESGGGLVQPGGSLRLSCAASGFTFSSYEMNWVRQAPGKGLEWVSYISSSGSTIYYADSVKGRFTISRDNAKNSLYLQMNSLRAEDTAVYYCARVEQLAPSPYMDVWGKGTTVTVSS VL: MTQSLDSLTVSLGERATINCKSSQSLLYTSNNKNYLAWYQQKSGQPPKLLIYWASIRDSGVPDRFSGSGSATDFTLTINNLQAEDVAVYFCQQYYKTPLTFGGGTKVEVR |
| 12 | – | 7 | 9 | – | binds | 3 | 8 | 7.98 | Ab7968 (antibody, IgG1, V domains shown, Recombinant human antibody with IgG1 heavy chain backbone and kappa light chain constant; they begin at LVESGGG and MTQSP; also called mAb 7968; mAb7968) VH: LVESGGGVVQPGRSLRLSCAASGFTFSRYGMHWVRQAPGKGLEWVAVMSYDGSTKYYADSVKGRFAISRDNPKNTLFLQMNSLRPDDTAVYYCAKGGAAAAVMDVWGKGTTVTVSS VL: MTQSPDSLTVSLGERATISCKSSQRLLYSSNNKNYLAWYQQKPGQPPKLLMYWASTRESGVPDRFSGSGSGTDFSLTISSLQAEDVAVYYCQQYYNPPWTFGQGTKVEVK |
| – | 2 | – | – | 4 | binds | 2 | 11 | 9.08 | Ab7957/293i (antibody, IgG1, V domains shown, Recombinant human antibody with IgG1 heavy chain backbone and kappa light chain constant; they begin at LVESGGG and MTQSP; also called Ab7957i; mAb 7957) VH: LVESGGGVVPPGKSLRLSCAASGFTFSLYGIHWVRQAPGKGLEWVAVISYDGNTKYYTDSVKGRFTISRDNAKNTIYLQMNSLRLDDTAVYYCAKGAANSATFDFWGRGTMVTVSS VL: MTQSPDSLTLSLGERATINCRSSRTVLYRSNNKNYLAWYQHKPGQPPKLLMSWASTRETGVPDRFSGSGSGTHFTLTITSLQPEDVAVYYCQQYYSPPWTFGQGTKVEIR |
